Measurements: US20090175863A1 (BIOTEST, published 2009)
Values joined by “and” are separate entries in the source; they are usually repeats but may differ in a detail not shown here. Identical values can stand only once.

Legend:
[1] = target: T1, CD138 expressed on the cell surface (OPM-2 cells, MOLP-8 cells) (human, UniProt P18827 23-310); assay: FACS on CD138+ OPM-2 cells, fluorescence-labeled secondary antibody, mean fluorescence against concentration
T1 construct: whole, on cells; also called syndecan-1; CD138+ OPM-2
T1 sequence (looked up): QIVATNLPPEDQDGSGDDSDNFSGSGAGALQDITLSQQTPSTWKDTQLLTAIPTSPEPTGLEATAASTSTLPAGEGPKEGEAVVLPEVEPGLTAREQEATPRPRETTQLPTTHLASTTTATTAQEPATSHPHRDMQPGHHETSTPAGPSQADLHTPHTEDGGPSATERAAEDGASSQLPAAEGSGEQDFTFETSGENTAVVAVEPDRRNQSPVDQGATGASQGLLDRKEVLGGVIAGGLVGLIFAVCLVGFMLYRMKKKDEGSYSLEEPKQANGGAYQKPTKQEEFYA
Source text: The mean fluorescence measured in these experiments was plotted against the antibody concentration.
In FIG. 6, the mean fluorescences as measure for the amount of cell bound antibody is plotted against different antibody or conjugate concentrations.

[2] = target: T2, Soluble CD138 antigen purified from U-266 cell culture supernatant, biotinylated (human, UniProt P18827 23-245, limits assumed, biotinylated with Sulfo-NHS-LC-Biotin on primary amino groups (lysine residues); positions not stated); assay: SPR (BIACORE C), biotinylated CD138 on SA chip, conjugate as analyte; single experiment
T2 construct: Natural soluble (shed) CD138 captured on a streptavidin sensor chip; also called bCD138; biotinylated CD138
T2 sequence (looked up): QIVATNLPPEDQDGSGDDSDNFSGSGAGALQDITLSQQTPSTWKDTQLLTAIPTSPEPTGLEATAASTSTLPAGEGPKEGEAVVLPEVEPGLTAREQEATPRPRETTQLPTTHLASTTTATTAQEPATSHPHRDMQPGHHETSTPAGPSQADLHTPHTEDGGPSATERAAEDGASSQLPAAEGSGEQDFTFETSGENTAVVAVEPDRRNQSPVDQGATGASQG

[3] = target: T2, Soluble CD138 antigen purified from …; assay: SPR (BIACORE C), biotinylated CD138 on SA chip, conjugate as analyte; mean of three experiments, +/- SD

B1: nBT062-SPP-DM1 (antibody, V domains shown)
VH: QVQLQQSGSELMMPGASVKISCKATGYTFSNYWIEWVKQRPGHGLEWIGEILPGTGRTIYNEKFKGKATFTADISSNTVQMQLSSLTSEDSAVYYCARRDYYGNFYYAMDYWGQGTSVTVSS
VL: DIQMTQSTSSLSASLGDRVTISCSASQGINNYLNWYQQKPDGTVELLIYYTSTLQSGVPSRFSGSGSGTDYSLTISNLEPEDIGTYYCQQYSKLPRTFGGGTKLEIKR
[1]
  EC50 (read off the curve): ~1 nM

B2: nBT062 (antibody, human IgG4, kappa, V domains shown)
VH: B1 VH
VL: B1 VL
notes: also called cB-B4; chimeric B-B4
[1]
  EC50 (read off the curve): ~1 nM

B3: B-B4-SPP-DM1 (antibody, V domains shown)
VH: B1 VH
VL: DIQMTQSTSSLSASLGDRVTISCSASQGINNYLNWYQQKPDGTVELLIYYTSTLQSGVPSRFSGSGSGTDYSLTISNLEPEDIGTYYCQQYSKLPRTFGGGTKLEIK
[2]
  Kd: 2.6 nM and 2.7 nM
[3]
  Kd: 2.6 nM

B4: nBT062-SMCC-DM1 (antibody, V domains shown)
VH: B1 VH
VL: B1 VL
[1]
  EC50 (read off the curve): ~1 nM
